The text below walks through data of US20240368309A1 (Hoffmann-La Roche, published 2024).

The target of the test is T1, biotinylated monovalent EpCAM-Fc (human EpCAM ECD-Fc knob avi-his paired with Fc hole) (human, UniProt P01857 104-328 = IgG part, biotin on the avi tag (BirA co-expression)).
T1 construct: also called monovalent EpCAM-Fc construct; huEPCAM-Fc-knob (avi-His) + Fc hole (wt)
In words: SPR ProteOn XPR36 off-rate, biotinylated monovalent EpCAM-Fc on NLC chip, 50 nM supernatant.

Changes are numbered by the printed parent chain.

B1: Monovalent EpCAM (GG02_VH x GG05_VL) (antibody, IgG1, V domains shown)
VH: QVQLVQSGAEVKKPGASVKVSCKASGYTFTNYGMNWVRQAPGQRLEWMGWINTYTGESTYSQKFQGRVTITRDTSASTAYMELSSLRSEDTAVYFCARFAIKGDYWGQGTLVTVSS
VL: DIVMTQSPLSLPVTPGEPASISCRSSQGINNYLYWYLQKPGQSPQLLIYQMSNRASGVPDRFSGSGSGTDFTLKISRVEAEDVGVYYCAQNLEIPRTFGQGTKLEIK
notes: one-armed hu IgG1 PG-LALA, VH/VL-crossed Fab on Fc hole plus empty Fc knob; from supernatant
The term koff denotes a measure of how fast the partners let go of each other. A lower koff goes with a long-lived complex. B1 had a koff of 0.00361 s⁻¹.

B2: Monovalent EpCAM (GG03_VH x GG04_VL) (antibody, IgG1, V domains shown)
VH: B1 VH with R72L
VL: DIQMTQSPSSLSASVGDRVTITCRASQSISSYLYWYQQKPGKAPKLLIYQASSLQSGVPSRFSGSGSGTDFTLTISSLQPEDFATYYCAQNLEIPRTFGQGTKLEIK
notes: as for B1
With B2, the koff is 0.00247 s⁻¹.

B3: Monovalent EpCAM (GG03_VH x GG01_VL) (antibody, IgG1, V domains shown)
VH: B1 VH with R72L
VL: DIVMTQSPLSLPVTPGEPASISCRSSQSLLHSNGITYLYWYLQKPGQSPQLLIYQMSNRASGVPDRFSGSGSGTDFTLKISRVEAEDVGVYYCAQNLEIPRTFGQGTKLEIK
notes: as for B1
Turning to B3, the koff came to 0.00255 s⁻¹.

B4: Monovalent EpCAM (GG02_VH x GG07_VL) (antibody, IgG1, V domains shown)
VH: B1 VH
VL: EIVLTQSPGTLSLSPGERATLSCRASQSINNYLYWYQQKPGQAPRLLIYQMSNRATGIPDRFSGSGSGTDFTLTISRLEPEDFAVYYCAQNLEIPRTFGQGTKLEIK
notes: as for B1
The molecule B4 had a koff of 0.00303 s⁻¹.

B5: Monovalent EpCAM (GG04_VH x GG05_VL) (antibody, IgG1, V domains shown)
VH: EVQLVQSGAEVKKPGESLKISCKGSGYSFTNYGMNWVRQMPGKGLEWMGWINTYTGESTYSPSFQGQVTISADKSISTAYLQWSSLKASDTAMYFCARFAIKGDYWGQGTLVTVSS
VL: B1 VL
notes: as for B1
Molecule B5 showed an off-rate (koff) of 0.0123 s⁻¹.

B6: Monovalent EpCAM (GG03_VH x GG05_VL) (antibody, IgG1, V domains shown)
VH: B1 VH with R72L
VL: B1 VL
notes: as for B1
In the case of B6, the koff worked out at 0.00483 s⁻¹.

B7: Monovalent EpCAM (GG03_VH x GG07_VL) (antibody, IgG1, V domains shown)
VH: B1 VH with R72L
VL: B4 VL
notes: as for B1
In turn, B7 registered a koff of 0.00366 s⁻¹.

B8: Monovalent EpCAM (GG05_VH x GG05_VL) (antibody, IgG1, V domains shown)
VH: B5 VH with N31Q
VL: B1 VL
notes: as for B1
In turn, B8 had a koff of 0.0127 s⁻¹.

B9: Monovalent EpCAM (GG06_VH x GG07_VL) (antibody, IgG1, V domains shown)
VH: QVQLVQSGSELKKPGASVKVSCKASGYTFTNYGMNWVRQAPGQGLEWMGWINTYTGQSTYAQGFTGRFVFSLDTSVSTAYLQISSLKAEDTAVYFCARFAIKGDYWGQGTLVTVSS
VL: B4 VL
notes: as for B1
As to B9, the koff came to 0.00254 s⁻¹.

B10: Monovalent EpCAM (GG04_VH x GG01_VL) (antibody, IgG1, V domains shown)
VH: B5 VH
VL: B3 VL
notes: as for B1
Consider B10, for which the koff is 0.00662 s⁻¹.

B11: Monovalent EpCAM (GG04_VH x GG02_VL) (antibody, IgG1, V domains shown)
VH: B5 VH
VL: DIVMTQSPDSLAVSLGERATINCKSSQSLLHSNGITYLYWYQQKPGQPPKLLIYQASTRESGVPDRFSGSGSGTDFTLTISSLQAEDVAVYYCAQNLEIPRTFGQGTKLEIK
notes: as for B1
The molecule B11 came in with a koff of 0.00943 s⁻¹.

B12: Monovalent EpCAM (GG04_VH x GG04_VL) (antibody, IgG1, V domains shown)
VH: B5 VH
VL: B2 VL
notes: as for B1
Take B12: the koff came out at 0.0069 s⁻¹.

B13: Monovalent EpCAM (GG04_VH x GG06_VL) (antibody, IgG1, V domains shown)
VH: B5 VH
VL: DIQMTQSPSSLSASVGDRVTITCRASQSILHSQGITYLYWYQQKPGKAPKLLIYQMSNLQSGVPSRFSGSGSGTDFTLTISSLQPEDFATYYCAQNLEIPRTFGQGTKLEIK
notes: as for B1
For the molecule B13, the koff was 0.00581 s⁻¹.

B14: Monovalent EpCAM (GG04_VH x GG03_VL) (antibody, IgG1, V domains shown)
VH: B5 VH
VL: EIVLTQSPGTLSLSPGERATLSCRASQSLLHSNGITYLYWYQQKPGQAPRLLIYQMSNRATGIPDRFSGSGSGTDFTLTISRLEPEDFAVYYCAQNLEIPRTFGQGTKLEIK
notes: as for B1
On to B14, for which the off-rate constant (koff) was 0.00538 s⁻¹.

B15: Monovalent EpCAM (GG05_VH x GG07_VL) (antibody, IgG1, V domains shown)
VH: B5 VH with N31Q
VL: B4 VL
notes: as for B1
B15 displayed a koff of 0.00302 s⁻¹.

B16: Monovalent EpCAM (GG05_VH x GG04_VL) (antibody, IgG1, V domains shown)
VH: B5 VH with N31Q
VL: B2 VL
notes: as for B1
B16 returned a koff of 0.00536 s⁻¹.

B17: Monovalent EpCAM (GG05_VH x GG02_VL) (antibody, IgG1, V domains shown)
VH: B5 VH with N31Q
VL: B11 VL
notes: as for B1
As for B17, the off-rate constant (koff) was 0.00783 s⁻¹.

B18: Monovalent EpCAM (GG05_VH x GG06_VL) (antibody, IgG1, V domains shown)
VH: B5 VH with N31Q
VL: B13 VL
notes: as for B1
B18: the koff was determined as 0.00317 s⁻¹.

B19: Monovalent EpCAM (GG05_VH x GG01_VL) (antibody, IgG1, V domains shown)
VH: B5 VH with N31Q
VL: B3 VL
notes: as for B1
For the molecule B19, the koff is 0.00545 s⁻¹.

B20: Monovalent EpCAM (GG05_VH x GG03_VL) (antibody, IgG1, V domains shown)
VH: B5 VH with N31Q
VL: B14 VL
notes: as for B1
As for B20, the koff was found to be 4.35e-05 s⁻¹.
